Data reported in patent US20220306744A1 (CRESCENDO BIOLOGICS, published 2022).

B1: 1.92b-4GS-1.39a (other)
chain: EVQLVESGGGLVKPGGSLRLSCAASGFTFSDESMTWMRQAPGKGLEWVSYISSGGGVKFYADSVKGRFTISRDNAKNSLYLQMNSLRAEDTAVYYCAREAPLRLGESPHDAFDISGQGTMVTVSSGGGGSGGGGSGGGGSGGGGSEVQLVESGGGLVQPGRSLRLSCAASGFTFDDYALHWVRQAPGKDLEWVSGISWNGGSYGYADSVKGRFTISRDNAKNSLYLQMNSLRAEDTALYYCVREKGPGLTGSTADYYGLDAWGQGTMVTVSS
notes: Biparatopic VH-linker-VH; built from its parts here because it is not clear whether 1112 is the protein or the nucleic acid
B2: 1.92b-4GS-1.62a (other)
chain: EVQLVESGGGLVKPGGSLRLSCAASGFTFSDESMTWMRQAPGKGLEWVSYISSGGGVKFYADSVKGRFTISRDNAKNSLYLQMNSLRAEDTAVYYCAREAPLRLGESPHDAFDISGQGTMVTVSSGGGGSGGGGSGGGGSGGGGSEVQLVESGGGVVRPGGSLRLSCAASGFTFDDYAMSWVRQAPGKGLEWVSGITWNAGSTGYADSVKGRFTISRDNAKNSLYLQMNSLRAEDTALYYCVRDKYSYAWSYDDFDIWGQGTMVTVSS
notes: Biparatopic VH-linker-VH; also called 1.92-4GS-1.62a; 1.92b-4gs-2.12a

Experiments:
[1] = target: T1, human PD-1 expressed on cells (CHO TREX human PD1 cell line, full-length human PD-1 sequence) (human, UniProt Q15116 21-288); assay: cell-based or functional assay
T1 sequence (Q15116 21-288): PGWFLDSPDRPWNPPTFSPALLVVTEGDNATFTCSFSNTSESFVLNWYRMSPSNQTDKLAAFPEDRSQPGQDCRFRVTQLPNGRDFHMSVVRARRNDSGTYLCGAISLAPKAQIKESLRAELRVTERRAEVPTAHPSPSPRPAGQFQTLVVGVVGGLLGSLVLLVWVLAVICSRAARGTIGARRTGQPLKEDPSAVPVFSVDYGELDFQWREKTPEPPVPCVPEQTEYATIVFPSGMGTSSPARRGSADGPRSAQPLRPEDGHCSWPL

[2] = target: T1, human PD-1 expressed on cells (CHO TREX …); assay: flow cytometry, PHA-stimulated human CD4+ T cells, Donor 2
Procedure: Binding of monovalent single domain antibodies and multivalent binding agents to T cells was measured using flow cytometry. Peripheral blood mononuclear cells (PBMCs) were isolated from human blood by density gradient centrifugation then CD4+ T cells purified using a negative selection isolation kit according to the manufacturer's protocol (Miltenyi Biotech cat no 130-096-533). T-cells were stimulated with 2.5 μg/ml PHA for 3 days in RPMI media supplemented with 10% FBS, 2 mM Glutamine, 1× Pen/Strep. Cells were transferred into 96 well plates (75000 per well), blocked for 10 mins with PBS/1% BSA, then incubated with serially diluted VH in staining buffer (PBS/1% BSA) for 1 hour at 4° C. Cells were washed with staining buffer by centrifugation then incubated with 10 μg/ml biotinylated Anti His antibody for 40 mins at 4° C. Cells were washed again then stained with Streptavidin Alexa Fluor-488 (10 μg/ml) and 1:5000 diluted Live Dead near IR stain (Molecular Probes cat no. L10119) for 30 mins at 4° C. After further washing cells were fixed and fluorescence measured by flow cytometry.

[3] = target: T1, human PD-1 expressed on cells (CHO TREX …); assay: epitope competition assay on CHO human PD1 cells (labelled VH not specified) after 7 days in mouse serum
Procedure: (§1) Serum stability of VH and multivalent VH constructs was assessed by measurement of their activity following incubation for 0, 1, 4 or 7 days both in mouse (Sigma M5905) and human serum. […] Minimal loss of activity was observed following incubation with serum.

[4] = target: T2, cynomolgus PD-1 recombinant protein (Acro Biosystems cat no. PD-1-C5254) (cynomolgus); assay: HTRF binding assay, 2 nM recombinant PD1, anti His-D2 and anti human-Fc cryptate
T2 construct: Bought protein; also called cyno PD1
Procedure: (§2) Purified VH were tested for their ability to bind to human PD1 (R&D Systems cat no. 1086-PD), cynomolgus PD-1 (Acro Biosystems cat no. PD-1-C5254) and mouse PD1 (R&D Systems cat no. 1021-PD) in an HTRF Binding assay format. All reagents and serially diluted VH were prepared in assay buffer containing PBS, 0.1% BSA and 0.4M Potassium Fluoride. Samples or assay buffer (non-specific binding) were incubated with 2 nM human/cynomolgus or mouse PD1, 1 nM Anti human-Fc Cryptate PAb (Cisbio cat. no. 61HFCKLB) and 30 nM anti His-D2 (CisBio cat no 61HISDLA) in black 384-shallow well assay plates for a minimum of 3 hours at room temperature. Time-resolved fluorescent emission at 620 nm and 665 nm was measured following excitation at 337 nm on the BMG PHERAstar plate reader. The HTRF ratio were calculated ((665 nm emission/620 nm emission)*10000) and the data corrected for (non-specific binding) to give the specific binding signal.

[5] = target: T3, recombinant human PD-1 Fc chimera (human, UniProt Q15116 25-167); assay: as above
T3 construct: Bought protein (R&D 1086-PD in the HTRF assay); also called human PD-1-hu Fc; huPD-1Fc; not shown: human Fc
T3 sequence (Q15116 25-167 limits assumed, change not shown): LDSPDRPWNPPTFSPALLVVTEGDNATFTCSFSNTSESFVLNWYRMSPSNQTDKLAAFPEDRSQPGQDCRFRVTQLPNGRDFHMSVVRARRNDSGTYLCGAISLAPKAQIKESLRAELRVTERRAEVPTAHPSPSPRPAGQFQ
Procedure: as §2

[6] = target: T1, human PD-1 expressed on cells (CHO TREX …); assay: FMAT: inhibition of human Fc tagged human PD-L1 (400 pM) binding to CHO human PD-1 cells
Procedure: Purified VH were serially diluted in FMAT assay buffer and tested for binding to CHO human PD-1 cells as described above and for inhibition of human PD-L1/PD-L2 binding to CHO human PD-1 cells. All reagents and serially diluted VH were prepared in FMAT assay buffer. VH, buffer (total binding controls) or excess competitor (non-specific binding control) were incubated with 400 pM human Fc tagged human PD-L1 or 100 pM PDL-2, 4 nM anti human Fc-Alexa Fluor-488 and 2000 per well CHO human PD-1 DRAQ5 stained cells in a 384 well black clear-bottomed assay plates. Plates were incubated for 2 hours at room temperature then fluorescence measured in the FL2 (502 nm-537 nm) and FL5 (677-800 nm) channels on the Mirrorball plate reader (TTP) following excitation at 488 nm and 640 nm. Data was expressed as a % of the total binding control (i.e. % control) after subtraction of the background signal determined from the non-specific binding control wells. The results are shown in FIG. 5 and in Tables 8 and 9 below.

[7] = target: T4, mouse PD-1 protein (R&D Systems cat no. 1021-PD) (mouse, UniProt Q02242 25-167); assay: HTRF binding assay, 2 nM mouse PD1
T4 construct: Bought protein
T4 sequence (looked up): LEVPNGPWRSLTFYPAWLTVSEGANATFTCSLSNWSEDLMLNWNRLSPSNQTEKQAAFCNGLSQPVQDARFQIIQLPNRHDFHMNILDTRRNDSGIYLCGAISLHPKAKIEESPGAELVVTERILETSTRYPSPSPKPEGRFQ
Procedure: as §2

[8] = target: T1, human PD-1 expressed on cells (CHO TREX …); assay: epitope competition assay on CHO human PD1 cells (labelled VH not specified) after 0 days in mouse serum
Procedure: as §1

[9] = target: T1, human PD-1 expressed on cells (CHO TREX …); assay: epitope competition assay on CHO human PD1 cells (labelled VH not specified) after 4 days in human serum
Procedure: as §1

[10] = target: T1, human PD-1 expressed on cells (CHO TREX …); assay: epitope competition assay on CHO human PD1 cells (labelled VH not specified) after 1 day in mouse serum
Procedure: as §1

| Binder | EC50 (M), NFAT-Luciferase reporter gene assay [1] | EC50 [2] | IC50 [3] | EC50 [4] | EC50 [5] | IC50 [6] | binding result [7] | IC50 [8] | IC50 [9] | IC50 [10] |
| --- | --- | --- | --- | --- | --- | --- | --- | --- | --- | --- |
| B1 | 2e-09 M | 0.6 nM | 1.8 nM | 3.7 nM | 2.1 nM | 1.45 nM | no binding | 1.2 nM | 1.1 nM | 1.3 nM |
| B2 | 1.2e-09 M | 0.4 nM | 2 nM | 3.9 nM | 2.1 nM | 1.2 nM | no binding | 1.7 nM | 1.1 nM | 2 nM |
